Where “and” joins values, the source holds several entries; their conditions need not be identical. Equal entries are not always repeated.
Legend:
[1] = biological target: the molecule itself; test: crystal structure; ORP1-ORD (524-950) with cholesterol, hanging drop 18 °C, 0.1 M NaAc pH 4.6, 2.0 M Na formate; oligomer by crystal symmetry
[2] = biological target: the molecule itself; test: SEC; Superdex-200 10/300, 10 mM Tris-HCl pH 8.0, 150 mM NaCl, 2 mM DTT; ORP1-ORD 5 uM alone or with cholesterol (free or in liposomes, 4:1); cholesterol shifts the protein towards monomer
[3] = biological target: the molecule itself; test: crystal structure; ORP1-ORD (534-950) with cholesterol, hanging drop 18 °C, 0.1 M Na cacodylate pH 6.2, 1.2 M Na citrate; oligomer by crystal symmetry

B1: ORP1-ORD (residues 524-950) (domain or fragment, human, UniProt Q9BXW6 524-950, looked up)
chain: DALSNGIKKHRTSLPSPMFSRNDFSIWSILRKCIGMELSKITMPVIFNEPLSFLQRLTEYMEHTYLIHKASSLSDPVERMQCVAAFAVSAVASQWERTGKPFNPLLGETYELVRDDLGFRLISEQVSHHPPISAFHAEGLNNDFIFHGSIYPKLKFWGKSVEAEPKGTITLELLEHNEAYTWTNPTCCVHNIIVGKLWIEQYGNVEIINHKTGDKCVLNFKPCGLFGKELHKVEGYIQDKSKKKLCALYGKWTECLYSVDPATFDAYKKNDKKNTEEKKNSKQMSTSEELDEMPVPDSESVFIIPGSVLLWRIAPRPPNSAQMYNFTSFAMVLNEVDKDMESVIPKTDCRLRPDIRAMENGEIDQASEEKKRLEEKQRAARKNRSKSEEDWKTRWFHQGPNPYNGAQDWIYSGSYWDRNYFNLPDIY
notes: OSBP-related domain (ORD) of human ORP1, residues 524-950 on ORP1L (1-950) numbering; Crystallised with cholesterol and with PI(4,5)P2; also called ORP1-ORD (524-950); source: E. coli Rosetta(DE3), purified (Ni-NTA, ion exchange, gel filtration)
[1]
  stoichiometry N: 3

B2: ORP1S (ORP1-ORD, residues 514-950) (natural protein, human, UniProt Q9BXW6 514-950, looked up)
chain: MSEEKDCGGGDALSNGIKKHRTSLPSPMFSRNDFSIWSILRKCIGMELSKITMPVIFNEPLSFLQRLTEYMEHTYLIHKASSLSDPVERMQCVAAFAVSAVASQWERTGKPFNPLLGETYELVRDDLGFRLISEQVSHHPPISAFHAEGLNNDFIFHGSIYPKLKFWGKSVEAEPKGTITLELLEHNEAYTWTNPTCCVHNIIVGKLWIEQYGNVEIINHKTGDKCVLNFKPCGLFGKELHKVEGYIQDKSKKKLCALYGKWTECLYSVDPATFDAYKKNDKKNTEEKKNSKQMSTSEELDEMPVPDSESVFIIPGSVLLWRIAPRPPNSAQMYNFTSFAMVLNEVDKDMESVIPKTDCRLRPDIRAMENGEIDQASEEKKRLEEKQRAARKNRSKSEEDWKTRWFHQGPNPYNGAQDWIYSGSYWDRNYFNLPDIY
notes: ORP1S, the short isoform encoded by human OSBPL1A, residues 514-950 on the numbering of the long isoform ORP1L (1-950); holds only the ORD; pET21b construct; In gel filtration it is a mixture of monomers, dimers and trimers; also called short isoform of OSBPL1A; source: E. coli Rosetta(DE3), purified (Ni-NTA, ion exchange, gel filtration)
[2]
  stoichiometry N: 2 and 3

B3: ORP1-ORD (residues 534-950) (domain or fragment, human, UniProt Q9BXW6 534-950, looked up)
chain: RTSLPSPMFSRNDFSIWSILRKCIGMELSKITMPVIFNEPLSFLQRLTEYMEHTYLIHKASSLSDPVERMQCVAAFAVSAVASQWERTGKPFNPLLGETYELVRDDLGFRLISEQVSHHPPISAFHAEGLNNDFIFHGSIYPKLKFWGKSVEAEPKGTITLELLEHNEAYTWTNPTCCVHNIIVGKLWIEQYGNVEIINHKTGDKCVLNFKPCGLFGKELHKVEGYIQDKSKKKLCALYGKWTECLYSVDPATFDAYKKNDKKNTEEKKNSKQMSTSEELDEMPVPDSESVFIIPGSVLLWRIAPRPPNSAQMYNFTSFAMVLNEVDKDMESVIPKTDCRLRPDIRAMENGEIDQASEEKKRLEEKQRAARKNRSKSEEDWKTRWFHQGPNPYNGAQDWIYSGSYWDRNYFNLPDIY
notes: OSBP-related domain (ORD) of human ORP1, residues 534-950 on ORP1L (1-950) numbering; Crystallised with cholesterol from Na cacodylate; also called ORP1-ORD (534-950); ORP1S lacking the N-terminal 20 amino acids; source: E. coli Rosetta(DE3), purified (Ni-NTA, ion exchange, gel filtration)
[3]
  stoichiometry N: 2
